Each block holds one molecule with its values, some of them ahead of it.
Tests used:
[1] = target: FAK (focal adhesion kinase) FERM domain (UniProt O35346); test: GST-FERM pull-down of His-Dyn2; conditions: reference: His-Dyn2 wild type from TKB1 (phosphorylated); sites Y231,Y597
[2] = target: FAK (focal adhesion kinase) (UniProt O35346); test: S-bead precipitation of SFB-FAK, Dyn2 blot; conditions: reference: wild-type Dyn2; sites Y231,Y597
[3] = target: SFB-FAK (S protein, Flag, and streptavidin binding peptide triple tagged FAK) (rat, UniProt O35346 1-1055); test: co-IP
Sequence of SFB-FAK (S protein, Flag, and streptavidin binding peptide triple tagged FAK) (O35346 whole entry, the tested form may be a part): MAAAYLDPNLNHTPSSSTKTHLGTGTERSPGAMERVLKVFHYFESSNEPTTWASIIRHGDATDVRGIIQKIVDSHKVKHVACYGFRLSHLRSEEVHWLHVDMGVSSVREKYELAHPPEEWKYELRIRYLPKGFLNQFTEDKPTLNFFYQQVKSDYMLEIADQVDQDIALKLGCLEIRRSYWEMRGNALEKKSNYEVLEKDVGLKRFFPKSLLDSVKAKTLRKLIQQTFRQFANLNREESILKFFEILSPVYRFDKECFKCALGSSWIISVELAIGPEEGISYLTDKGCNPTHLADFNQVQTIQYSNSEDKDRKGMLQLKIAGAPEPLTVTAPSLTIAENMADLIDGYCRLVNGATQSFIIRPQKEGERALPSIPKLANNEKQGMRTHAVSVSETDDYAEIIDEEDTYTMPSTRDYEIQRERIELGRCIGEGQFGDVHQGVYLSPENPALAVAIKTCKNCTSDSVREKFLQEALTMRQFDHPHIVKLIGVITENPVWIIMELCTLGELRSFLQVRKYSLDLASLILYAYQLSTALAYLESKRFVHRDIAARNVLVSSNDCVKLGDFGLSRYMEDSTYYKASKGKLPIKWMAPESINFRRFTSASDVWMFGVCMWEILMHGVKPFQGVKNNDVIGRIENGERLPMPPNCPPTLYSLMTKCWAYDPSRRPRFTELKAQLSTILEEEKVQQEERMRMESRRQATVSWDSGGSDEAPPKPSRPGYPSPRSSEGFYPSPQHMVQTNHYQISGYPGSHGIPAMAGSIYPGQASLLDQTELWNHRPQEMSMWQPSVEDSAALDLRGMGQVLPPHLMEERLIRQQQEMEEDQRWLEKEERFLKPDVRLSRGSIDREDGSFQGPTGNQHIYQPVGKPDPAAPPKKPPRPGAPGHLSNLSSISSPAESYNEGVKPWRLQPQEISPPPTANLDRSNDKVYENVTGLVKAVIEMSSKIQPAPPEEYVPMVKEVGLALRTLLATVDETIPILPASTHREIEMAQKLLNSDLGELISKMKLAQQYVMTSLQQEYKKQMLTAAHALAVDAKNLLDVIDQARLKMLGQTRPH

[4] = target: T1, GST-FERM (FERM domain of FAK) (rat, UniProt O35346 35-355); test: pull-down
T1 sequence (looked up): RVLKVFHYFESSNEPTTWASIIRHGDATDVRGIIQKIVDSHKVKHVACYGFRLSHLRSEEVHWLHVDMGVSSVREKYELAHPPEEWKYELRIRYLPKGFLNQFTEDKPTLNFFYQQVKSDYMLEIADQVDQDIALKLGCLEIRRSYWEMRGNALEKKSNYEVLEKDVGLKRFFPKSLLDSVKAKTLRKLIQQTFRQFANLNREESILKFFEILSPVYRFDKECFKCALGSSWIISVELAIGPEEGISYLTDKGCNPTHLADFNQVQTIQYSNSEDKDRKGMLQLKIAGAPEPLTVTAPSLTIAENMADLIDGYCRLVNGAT

fold change [1]: weaker; reference threefold
Molecule: Dyn2 (dynamin-2) (from UniProt P39052) His-Dyn2 Y231F/Y597F from TKB1

fold change [2]: weaker; reference 3.2 ± 0.6-fold
Molecule: Dyn2 (dynamin-2) (from UniProt P39052) Dyn2 Y231F/Y597F (YF)

fold co-precipitated relative to Dyn2 YF [3]: 3.2 ± 0.6 fold
B1: Dyn2 WT (dynamin-2, wild type), expressed in cells (natural protein)
chain: MGNRGMEELIPLVNKLQDAFSSIGQSCHLDLPQIAVVGGQSAGKSSVLENFVGRDFLPRGSGIVTRRPLILQLIFSKTEYAEFLHCKSKKFTDFDEVRQEIEAETDRVTGTNKGISPVPINLRVYSPHVLNLTLIDLPGITKVPVGDQPPDIEYQIKDMILQFISRESSLILAVTPANMDLANSDALKLAKEVDPQGLRTIGVITKLDLMDEGTDARDVLENKLLPLRRGYIGVVNRSQKDIEGRKDIRAALAAERKFFLSHPAYRHMADRMGTPHLQKTLNQQLTNHIRESLPTLRSKLQSQLLSLEKEVEEYKNFRPDDPTRKTKALLQMVQQFGVDFEKRIEGSGDQVDTLELSGGARINRIFHERFPFELVKMEFDEKDLRREISYAIKNIHGVRTGLFTPDLAFEAIVKKQVVKLKEPCLKCVDLVIQELISTVRQCTSKLSSYPRLREETERIVTTYIREREGRTKDQILLLIDIEQSYINTNHEDFIGFANAQQRSTQLNKKRAIPNQGEILVIRRGWLTINNISLMKGGSKEYWFVLTAESLSWYKDEEEKEKKYMLPLDNLKIRDVEKGFMSNKHVFAIFNTEQRNVYKDLRQIELACDSQEDVDSWKASFLRAGVYPEKDQAENEDGAQENTFSMDPQLERQVETIRNLVDSYVAIINKSIRDLMPKTIMHLMINNTKAFIHHELLAYLYSSADQSSLMEESAEQAQRRDDMLRMYHALKEALNIIGDISTSTVSTPVPPPVDDTWLQNTSSHSPTPQRRPVSSVHPPGRPPAVRGPTPGPPLIPMPVGATSSFSAPPIPSRPGPQNVFANNDPFSAPPQIPSRPARIPPGIPPGVPSRRAPAAPSRPTIIRPAEPSLLD

fold association relative to Dyn2 YF [4]: 3 fold
B2: His-Dyn2 WT purified from TKB1 E. coli (pDyn2 protein) (natural protein)
chain: B1 chain
modifications: tyrosine-phosphorylated: recognised by the 4G10 and pDyn2 (pTyr-231) antibodies
